Broadly, the IC50 is the concentration that gives 50% inhibition. A lower IC50 goes with higher potency.

From patent publication US20090306338A1 (TRUSTEES OF TUFTS COLLEGE, published 2009) come the findings set out here.

Assay [1] has as its target human GLP-1 receptor (human) (UniProt P43220). In words: cell-based or functional assay.
The target is the same in assay [2].
For assay [3], the target named is T1, human GLP-1 receptor (human, UniProt P43220 24-463).
Assay [4] concerns the target T1, human GLP-1 receptor. In words: cell-based or functional assay.
Assay [5] addresses T1, human GLP-1 receptor. In words: cell-based or functional assay. The source holds these as a separate data set.

Square brackets hold non-standard residues; d marks the D form. Ends that are not written are not given here. Asp(3,3-Me2) = CC(C)(C(=O)O)[C@H](N)C(=O)O

Sequence of human GLP-1 receptor (human) (P43220 24-463): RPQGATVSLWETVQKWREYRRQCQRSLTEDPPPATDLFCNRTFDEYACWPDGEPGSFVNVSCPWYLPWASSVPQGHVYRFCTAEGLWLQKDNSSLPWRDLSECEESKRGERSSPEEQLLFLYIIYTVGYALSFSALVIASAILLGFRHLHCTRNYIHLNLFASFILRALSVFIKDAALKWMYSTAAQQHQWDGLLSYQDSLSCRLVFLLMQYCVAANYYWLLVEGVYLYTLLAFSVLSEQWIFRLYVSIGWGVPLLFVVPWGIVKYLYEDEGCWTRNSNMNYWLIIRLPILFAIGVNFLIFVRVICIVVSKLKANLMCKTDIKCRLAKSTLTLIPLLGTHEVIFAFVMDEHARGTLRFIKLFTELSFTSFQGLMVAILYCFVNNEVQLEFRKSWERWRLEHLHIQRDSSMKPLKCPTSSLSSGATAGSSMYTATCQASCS

In assay [1], Exendin-4 (peptide) gave an EC50 for receptor activation (cAMP) of 100 to 500 pM.

Regarding “Exendin-4 (peptide; other documents disagree on this pair)”, in assay [2], the IC50 is 400 pM.

B1: P1732 (peptide)
peptide: HA[Asp(3,3-Me2)]GTFTSDVSSYLEGQAAKEFIAWLVKGRPSSGAPPPS
modifications: ends and bridges not checked
Consider B1, for which half-maximal inhibition in assay [3] (IC50) required 2500 pM. The “EC50 for receptor activation (cAMP)” value in assay [4] fell in the range of 400 to 1100 pM. The “EC50 (nM), cAMP production in COS-7 cells expressing the human GLP-1 receptor” value in assay [5] was 0.64 nM.
